Consider four molecules from publication PMC9371926 (Nucleic Acids Research, 2022).

Common to all, as to assay: native MS
The target of series [1] is T1, Methanocaldococcus jannaschii (Mja) RPP30 (Methanocaldococcus jannaschii, UniProt Q58539 1-232).
T1 sequence: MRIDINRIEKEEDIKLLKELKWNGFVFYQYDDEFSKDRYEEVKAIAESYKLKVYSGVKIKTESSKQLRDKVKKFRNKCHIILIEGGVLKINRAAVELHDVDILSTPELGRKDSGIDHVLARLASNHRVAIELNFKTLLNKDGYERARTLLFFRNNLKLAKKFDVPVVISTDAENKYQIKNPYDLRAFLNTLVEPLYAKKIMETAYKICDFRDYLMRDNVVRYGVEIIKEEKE

The series “native MS” concerns the molecule itself.
Series [2] deals with T2, Methanocaldococcus jannaschii (Mja) RPP21 (Methanocaldococcus jannaschii, UniProt Q58372 1-128).
T2 sequence: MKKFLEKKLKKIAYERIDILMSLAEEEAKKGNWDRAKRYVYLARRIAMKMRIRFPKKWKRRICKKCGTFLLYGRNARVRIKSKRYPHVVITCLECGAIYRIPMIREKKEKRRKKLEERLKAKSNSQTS

B1: Methanocaldococcus jannaschii (Mja) POP5 (natural protein)
chain: MIEMLKTLPPTLREKKRYIAFKILYDEELKEGEVVNLIRKAVLEYYGSWGTSKANPWLVYYDFPYGILRCQRDNVDYVKASLILIREFKEKPVNIICLGVSGTIRKAKIKFLGIKKPKRWFVIRRERLKAKKQK
As to B1, the binding result in series [1] was “binds”.

B2: Mja POP5·RPP30 binary complex (complex, Methanocaldococcus jannaschii)
chain 1: MIEMLKTLPPTLREKKRYIAFKILYDEELKEGEVVNLIRKAVLEYYGSWGTSKANPWLVYYDFPYGILRCQRDNVDYVKASLILIREFKEKPVNIICLGVSGTIRKAKIKFLGIKKPKRWFVIRRERLKAKKQK
chain 2: MRIDINRIEKEEDIKLLKELKWNGFVFYQYDDEFSKDRYEEVKAIAESYKLKVYSGVKIKTESSKQLRDKVKKFRNKCHIILIEGGVLKINRAAVELHDVDILSTPELGRKDSGIDHVLARLASNHRVAIELNFKTLLNKDGYERARTLLFFRNNLKLAKKFDVPVVISTDAENKYQIKNPYDLRAFLNTLVEPLYAKKIMETAYKICDFRDYLMRDNVVRYGVEIIKEEKE
For B2, the binding result in “native MS” is “binds”.

B3: Methanocaldococcus jannaschii (Mja) RPP29 (natural protein)
chain: MITPHNILRHELIGLKVEIVEAKNKAMIGIKGKVVDETRNTLVIEKEDGREVVIPKDIAVFLFQLKGCKVKVDGRLLIGRPEERLKKKIKILYPY
Regarding B3, the binding result in series [2] is “binds”.

B4: Mja RPP21·RPP29 binary complex (complex, Methanocaldococcus jannaschii)
chain 1: MKKFLEKKLKKIAYERIDILMSLAEEEAKKGNWDRAKRYVYLARRIAMKMRIRFPKKWKRRICKKCGTFLLYGRNARVRIKSKRYPHVVITCLECGAIYRIPMIREKKEKRRKKLEERLKAKSNSQTS
chain 2: MITPHNILRHELIGLKVEIVEAKNKAMIGIKGKVVDETRNTLVIEKEDGREVVIPKDIAVFLFQLKGCKVKVDGRLLIGRPEERLKKKIKILYPY
Turning to B4, in “native MS”, the binding result was “binds”.
